From the supplement of paper PMC9170038

System: MS2 coat protein
Assay: apparent KD of MS2 coat protein; higher = weaker reporter binding
Details: Eterna round: R107
Description: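 RNA-MaP round R107: designed RNA switches with theophylline, tryptophan, arginine or FMN aptamers are transcribed on-chip within common flanks. They are titrated with SNAP-549-labelled MS2 coat protein in RNA-MaP buffer (100 mM Tris pH 7.5, 80 mM KCl, 4 mM MgCl2), without ligand or with the indicated ligand. Median apparent KD per design.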

[1] = input ligand: theophylline 20 uM
[2] = input ligand: theophylline 2 mM
[3] = input ligand: tryptophan 2.4 mM

Sequence	apparent KD of MS2 coat protein (input ligand: arginine 13.2 mM) [µM]	apparent KD of MS2 coat protein [1] [µM]	apparent KD of MS2 coat protein [2] [µM]	apparent KD of MS2 coat protein [3] [µM]	apparent KD of MS2 coat protein (input ligand: none) [µM]
UGAUACCAGUCGGCCGCCACUACAUGAGGAUCACCCAUGUAUCCUCAACUGCUAGAUACUAGCAGUAGGACCGGGACUGGUAUCU	0.164	0.408	0.459		
UUAAGAGGCUAUCCACUUUGAUUUUGUGAUACCAGAAUAAUUUUAUUCCCUUGGCAGCAUGACAUGAGGAUCACCCAUGUGUCUU [SSTheo A #3]	0.0314	0.0465		0.0369	
UCAGAUGAGGCGGCCGCCACUCGCGGAUAACGAUAGAUUAACAUGAGGAUCACCCAUGUGUCAUGGAGGACCGGGCCCAUGACAU [kjmullin]	0.0238	0.0423	0.0351		
GAGGGUGAAUCUCUGGUCCGUUUGACGGAUACCAGCGAGAGGUAUCGCCCUUGGCAGCCGACGACAUGAGGAUCACCCAUGUUAA [#08 Exclusion-TheophyllineA]	0.0189	0.0304		0.018	
GGAUUACGAAAGUAGUCCAUCAAGUUCGAGCGAGGACCGGUACGGCCGCCACUCGAACAUGAGGAUCACCCAUGUAGCGAAAGCU [Tryptophan A 21]	0.116	0.304	0.371		
CGCACAGAGAAUGAUACCAGCGAGGAAGCGACAUGAGGAUCACCCAUGUGCGAAUGAUCCCGCCCUUGGCAGCGUAAGUGAUCCC [ss-theoB-?]	0.0593	0.154		0.0626	
GGUUACUCUACGGCCGCCACUGUAAAGUAAAUAUUAAUGUACAUGACAUGAGGAUCACCCAUGUACAGGACCGGGUAGUGUAACC [Tryptophan B 14]	0.0455	0.0565	0.0465		
AUUAUCAUGGUCAUAUAUAUUUCGUCAGAUACCAGACUAGAUAUAGUCCCUUGGCAGCUGUUACAUGAGGAUCACCCAUGUUAUA [JR_ExcTheophyA_Sub016]	0.055	0.0768		0.0933	
GGUUACUCUACGGCCGCCACUGAUUAUUUAUAGUCCUGUACAUAAACAUGAGGAUCACCCAUGUACAGGACCGGGUAGUGUAACC [Tryptophan B 12]	0.0285	0.0539	0.0406		
UUGGGUUUGCGAAGGAGCGGGUAUGUUUUCUAGUGGAUCCUAACAUGAGGAUCACCCAUGUCCCAGGUAGGUCGCGCGGGUUUGG [12.V]	0.0891	0.23	0.224	0.148	0.122
GCAUCCUAGUCGGCCGCCACUGCAAUUGUAAUACUGCUACAUGAACAUGAGGAUCACCCAUGUAGCAGGACCGGGACUAGGAUGC [(Trp1)-(TM)''-(TM)'-(Ms2)-(Trp2)_Design9]	0.0804	0.185	0.222		
GUAUCGACAUGAGGAUCACCCAUGUCCGAAGGAGCGUUGGGAACAACAGGUAGGUCGCGGACAUAGAGCAUCCGGAAACGGAUGC [EAA NP+V+V2 #1]	0.0101	0.0164	0.0343	0.0139	0.014
GGCCGAAACGGCCAAGGUAUCAUGACCGAUACCAGCGAAGAAGAACGCCCUUGGCAGCGGACAUGAGGAUCACCCAUGUAAAGAA	0.0245	0.0383	0.124	0.0139	0.016
UGUAUGUGAUCUGAUACCAGUCCAACUGGUAAAACUUGAGGAUCACCCAGGUAAAAUUGGGACCCUUGGCAGCAGAUCGCAUACU	0.15	0.597	0.129	0.705	0.316
UGUAUGUGAUCUGAUACCAGAGUGAAUAAACCUGAGGAUCACCCUGGUAGGCGAAAGCCACUCCCUUGGCAGCAGAUCGCAUACU	0.102	0.112	0.0386	0.141	0.139
AGUACUCGAACGGAUACCAGCCGGACAUGAGGAUCACCCAUGUCCUACCAUGGUUCGGUUGGCCCUUGGCAGCCGUUCGUGUACA [Omei Theo B SS A v3]	0.128	0.204		0.203	
AUUUAUUGUCGUGAUACCAGACAUACAUGAGGAUCACCCAUGUUAAGUAACUUUUUUCAGGUCCCUUGGCAGCACUUUUUAAUUA [JR_Nu_SSTheophyB_Sub019]	0.0211	0.0238		0.0181	
ACAUAUUGGUGGUACCAACGAAGGCGGAAACGAGGACCGGUACGGCCGCCACUCGGCGACAUGAGGAUCACCCAUGUGGUUAAAA [Exclusion - Tryptophan A (Freestyle 2)]		0.153	0.851	0.972	0.149
GUAUACAUGAGGAUCACCCAUGUGCCAGAAGGAGCGCUGGAAACGGCAGGUAGGUCGCUGGUAGGUCCUCUAUCUAGACGUUCGG [#17 Exclusion - Arginine A]	0.0526	0.188	0.188	0.0603	0.0975
GGUCGCCAACAUGGGUGGGUGACCCUGGAAGGAGCGAGCGAGAGCUCAGGUAGGUCGCCAGAACAUGAGGAUCACCCAUGUAAUA [(A)''-(M)'-(A)'(Arg1)-(Arg2)-(M1)-(M2)_Design14]	0.0383	0.09	0.139	0.0658	0.0635
UGGGUACCGACGGCCGCCACUGAAUAUAGACAUGAGGAUCACCCAUGUAGAGAUCCUAGAAUAAACAGGACCGGGUCUGGUGCUA [Exclusion Tryptophane B GF5]	0.0924	0.239	0.293		
CGCGGUUGAGAUGGGCCUUUGAUAAGUCUGCGAGGACCGGUACGGCCGCCACUCGAGGACAUGAGGAUCACCCAUGUACUUCGCG [Atriera]	0.0511	0.081	0.0577		
GCGAUGGAGCGAAGGAGCGGCUAUCACCGACAAAACAUGAGGAUCACCCAUGUUGGCAGUGGCCAGGUAGGUCGCGCUCCAUCGC [EAB NP+V+V2 #8]	0.00817	0.0123	0.0108	0.00857	0.0114
UGGGUACAUGAGGAUCACCCAUGUACUGAAGGAGCGAGAAUUAUCUCAGGUAGGUCGCAGACAUGAGGAUCACCCAUGUAGUAGG [Exclusion Arginine A GF 12]	0.0253	0.0306	0.0372	0.0242	0.0273
UGACACAUGAGGAUCACCCAUGUCGCGAAACGAGGACCGGUACGGCCGCCACUCGCACAAACUCCUCUCCAGCACCAGCUUUUAG [theeternabot_sameState_MS2_Trp_A_3]	0.0154	0.0282	0.0242		
UUUGGCGGCGAUCUGGGUUUCCCAGAUCGGCGAGGACCGGUACGGCCGCCACUCGUGUUUCUUUGACAUGAGGAUCACCCAUGUA [whbob_SS_trypto A_f4]	0.0515	0.0827	0.0939	0.0428	0.0627
UCGGACAUGAGGAUCACCCAUGUAAAUCCUCGAGGACCGGUACGGCCGCCACUCGAACGAGUGGCACGCGAGUGCGCACUCGCGU [aEa]	0.0241	0.0478	0.034		
AGAGUUAGACAAAAGUCUAGCUCACCAGAAGGAGCGUCCGAAAGGACAGGUAGGUCGCUGGUACAUGAGGAUCACCCAUGUUCCU [ArgAS 8 #OpenEnded]	0.0435	0.116	0.145	0.082	0.124
GCUGCCAUACGAAGGAGCGCUGCUGCGAUGUGGCGAACAUGAGGAUCACCCAUGUGGCAGCAGCAGGUAGGUCGCGUAUGGCAGC [#01 Exclusion - Arginine B]	0.131	0.489	0.259	0.198	0.144
